Test [1] deals with RSV A2 pre-F (RSV A2). The test is described as follows: BLI.
Test [2] has as its target RSV A2 pre-F (RSV A2). In words: ELISA.
Test [3] concerns the target RSV A2 pre-F (RSV A2). In words: BLI. The source holds these as a separate data set.
Test [4] deals with RSV A2 pre-F (RSV A2). The test is described as follows: ELISA. This is another data set of the same source.

Among the data in patent publication US20260327294 (published 2026) are Kd and EC50 values, retold here.

Changes are numbered by the printed parent chain. Read-outs that look alike come from different tables or passages of the source.

B1: F6-56 (antibody, V domains shown)
VH: QVQLVESGGDVVRPGTSLRLSCAASGFAFRSHALHWVRQAPGKGLEWVSVISYDGGHTNSADSVKGRFTVSRDNSKNILFLQMNSLRIEDTAVYFCARSEGSYRSWPGYFYYMDVWGNGTTVTVSS
VL: QSALTQPASVSGSPGQSITISCIGTSSDVGGYYYVSWYQQHPGKAPKLIIFDVSDRPSGVSSRFSGSQSGNTASLTISGLQAEDEADYYCNSYSSSTTPYVFGSGTKVTVL
For B1, binding with RSV A2 pre-F [1] was characterised by a dissociation constant (Kd) of 0.381 nM. The EC50 with RSV A2 pre-F [2] stood at 0.0141 µg/mL.

B2: F6-65 (antibody, V domains shown)
VH: QVQLVESGGGLVQPGDSLRLSCAASGFTFKSYGLHWVRQAPGKGLEWVAGLSYDGFSGYYADSVKGRFTVSRDNSKNTLYLHINSLRSEDTSIYYCARGGDGEIFSWIGYFYYMDVWGKGTTVTVFS
VL: QSALTQPASVSGSPGQSITISCSGTTNDVGGYDYVSWYQHHPGKAPKLLIYDVSQRPSGVSSRFSGSKSGNTASLTISGLQTDDEAHYYCSSYTITNTLKFGGGTTLTVL
For B2, in the test with RSV A2 pre-F [1], the Kd came to 0.96 nM. In the test with RSV A2 pre-F [2], this molecule gave a 50% effective concentration (EC50) of 0.00998 µg/mL.

B3: F6-47 (antibody, V domains shown)
VH: QVQLLESGGNVVQPGRSLSLSCVASGFALKSYAVHWVRQAPGKGLEWVAFVPYDAVTNYYADSVKGRFTVSRDISKNTVNLHMNRLMGEDTAVYFCARGATSGSYSFLGYNYYMDVWGRGTAVTVSS
VL: QSALTQPASVSGSPGQPITISCTGTSSDVGAYTYVSWYQHHPGKAPKLILFDVTDRPSGVSHRFSGSKSGNTASLTISGLQSEDEAEYYCSSYTDRNTIVFGGGTTLTVL
Regarding B3, the Kd with RSV A2 pre-F [1] came out at 0.343 nM. In the test with RSV A2 pre-F [2], this molecule returned a concentration giving a half-maximal response (EC50) of 0.00998 µg/mL.

B4: F6-37 (antibody, V domains shown)
VH: QVHLVESGGNVVHPGTSLSLSCAGSGFTFKSHAIHWVRQAPGRGLEWVAFVPYDGATNYYADSLKGRFTVSRDNSRNTVSLHMNRLEGQDTAVYFCARGATSGSYSFLGYNYYMDVWGRGTTVTVSS
VL: B3 VL with P17S, H40Q, H41L, I49L, S61A, S82A, I99L, T106K
With B4, the equilibrium dissociation constant (Kd) in the test with RSV A2 pre-F [1] stood at 0.68 nM. In addition, in the test with RSV A2 pre-F [2], a half-maximal effect (EC50) was put at 0.0117 µg/mL.

B5: MEDI8897 (antibody, V domains shown)
VH: QVQLVQSGAEVKKPGSSVMVSCQASGGLLEDYIINWVRQAPGQGPEWMGGIIPVLGTVHYGPKFQGRVTITADESTDTAYMELSSLRSEDTAMYYCATETALVVSETYLPHYFDNWGQGTLVTVSS
VL: DIQMTQSPSSLSAAVGDRVTITCQASQDIVNYLNWYQQKPGKAPKLLIYVASNLETGVPSRFSGSGSGTDFSLTISSLQPEDVATYYCQQYDNLPLTFGGGTKVEIKR
On to B5, for which the Kd came to 0.379 nM with RSV A2 pre-F [3] and 0.122 nM with RSV A2 pre-F [1]. Also, the EC50 was 0.0313 µg/mL in the test with RSV A2 pre-F [4] and 0.0146 µg/mL in the test with RSV A2 pre-F [2].

B6: F6-49 (antibody, V domains shown)
VH: QVQLVESGGGVVLPGTSLTLSCAASGFTFRHYAIHWVRQTPGGGLEWVAALPYDGSTKYFAESVKDRFTIYRDNSQAAAFLHMSSLTPGDTALYYCARSTYSYEYSFLGYFYYMDVWGRGTSVTVSS
VL: QSALTQPASVSGSPGQSISISCTGTSRDVGAYTYISWSQQHTGQAPKLLIYDVSERPSGVSDRFSGSKTGDTASLAISGLQAEDEAVYYCSSYTDSNTVVFGGGTKVTVL
In the test with RSV A2 pre-F [1], B6 registered a dissociation constant Kd of 0.713 nM. The molecule also had an EC50 in the test with RSV A2 pre-F [2] of 0.0104 µg/mL.
